# T1: human IL2Rγ (endogenously expressed on cells) (human, UniProt P31785 23-369)
# T1 sequence (looked up): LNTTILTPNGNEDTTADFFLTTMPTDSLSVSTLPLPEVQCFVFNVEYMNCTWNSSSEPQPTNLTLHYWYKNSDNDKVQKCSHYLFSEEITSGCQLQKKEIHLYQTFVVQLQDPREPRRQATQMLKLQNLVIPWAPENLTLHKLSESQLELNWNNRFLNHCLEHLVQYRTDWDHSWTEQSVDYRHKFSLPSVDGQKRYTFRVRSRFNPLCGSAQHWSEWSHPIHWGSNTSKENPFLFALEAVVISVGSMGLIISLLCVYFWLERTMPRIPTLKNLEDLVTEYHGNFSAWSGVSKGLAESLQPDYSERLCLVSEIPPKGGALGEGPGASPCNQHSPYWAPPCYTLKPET
# T2: D1 domain of human IL-2Rγ extracellular domain expressed with a C-terminal myc-myc-hexahistidine tag (human)
# T2 construct: also called human IL2Rγ domain 1
# T2 chain: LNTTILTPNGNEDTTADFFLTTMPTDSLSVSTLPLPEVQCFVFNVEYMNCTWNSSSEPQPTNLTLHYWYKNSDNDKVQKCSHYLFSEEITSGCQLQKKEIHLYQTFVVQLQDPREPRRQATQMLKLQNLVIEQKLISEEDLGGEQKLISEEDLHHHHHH
# T3: D2 domain of human IL2Rγ extracellular domain expressed with a C-terminal myc-myc-hexahistidine tag (human)
# T3 construct: also called human IL2Rγ domain 2
# T3 chain: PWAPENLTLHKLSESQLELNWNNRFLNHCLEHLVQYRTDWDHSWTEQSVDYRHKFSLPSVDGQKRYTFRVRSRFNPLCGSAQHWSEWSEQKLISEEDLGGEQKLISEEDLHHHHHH
# T4: Human IL2Rγ extracellular domain expressed with a C-terminal mouse IgG2a Fc tag (human)
# T4 construct: whole entry is the Fc-fused construct; also called hIL-2Rg-mFc
# T4 chain: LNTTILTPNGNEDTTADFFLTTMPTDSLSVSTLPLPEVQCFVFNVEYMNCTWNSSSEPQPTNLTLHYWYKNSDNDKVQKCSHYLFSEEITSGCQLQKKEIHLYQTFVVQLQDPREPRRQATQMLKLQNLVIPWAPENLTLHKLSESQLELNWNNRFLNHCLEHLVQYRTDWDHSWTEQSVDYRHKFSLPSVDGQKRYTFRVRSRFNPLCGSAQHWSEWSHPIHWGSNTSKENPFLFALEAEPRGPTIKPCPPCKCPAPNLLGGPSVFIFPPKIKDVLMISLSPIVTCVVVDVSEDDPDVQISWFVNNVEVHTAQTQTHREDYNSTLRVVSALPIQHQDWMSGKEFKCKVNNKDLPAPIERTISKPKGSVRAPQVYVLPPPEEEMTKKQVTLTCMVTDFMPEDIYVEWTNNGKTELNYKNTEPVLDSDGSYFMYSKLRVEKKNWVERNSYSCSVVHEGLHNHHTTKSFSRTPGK
# T5: Mouse IL2Rγ extracellular domain expressed with a C-terminal myc-myc-hexahistidine tag (mouse)
# T5 construct: whole entry is the tagged construct; also called mIL-2Rg-MMH
# T5 chain: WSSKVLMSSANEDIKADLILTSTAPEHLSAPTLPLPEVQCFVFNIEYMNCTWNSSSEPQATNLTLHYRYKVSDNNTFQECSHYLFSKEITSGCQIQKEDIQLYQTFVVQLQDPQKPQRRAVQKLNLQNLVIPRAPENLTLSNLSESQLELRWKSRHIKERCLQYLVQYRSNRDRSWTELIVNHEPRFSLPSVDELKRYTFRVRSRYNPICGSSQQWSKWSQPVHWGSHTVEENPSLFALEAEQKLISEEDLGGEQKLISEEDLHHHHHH
# T6: Rat IL2Rγ extracellular domain expressed with a C-terminal myc-myc-hexahistidine tag (rat)
# T6 construct: whole entry is the tagged construct; also called rIL-2Rg-MMH; rat IL-2Rg-MMH
# T6 chain: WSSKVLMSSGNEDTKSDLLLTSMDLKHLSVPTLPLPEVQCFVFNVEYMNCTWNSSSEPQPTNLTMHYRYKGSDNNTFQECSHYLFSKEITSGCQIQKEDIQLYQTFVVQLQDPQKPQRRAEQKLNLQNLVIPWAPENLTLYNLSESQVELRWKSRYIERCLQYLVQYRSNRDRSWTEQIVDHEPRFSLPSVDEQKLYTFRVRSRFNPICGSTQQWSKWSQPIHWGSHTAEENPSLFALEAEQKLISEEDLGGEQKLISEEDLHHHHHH
# T7: Macaca fascicularis IL2Rγ extracellular domain expressed with a C-terminal myc-myc-hexahistidine tag (Macaca fascicularis)
# T7 construct: whole entry is the tagged construct; also called mfIL-2Rg-MMH
# T7 chain: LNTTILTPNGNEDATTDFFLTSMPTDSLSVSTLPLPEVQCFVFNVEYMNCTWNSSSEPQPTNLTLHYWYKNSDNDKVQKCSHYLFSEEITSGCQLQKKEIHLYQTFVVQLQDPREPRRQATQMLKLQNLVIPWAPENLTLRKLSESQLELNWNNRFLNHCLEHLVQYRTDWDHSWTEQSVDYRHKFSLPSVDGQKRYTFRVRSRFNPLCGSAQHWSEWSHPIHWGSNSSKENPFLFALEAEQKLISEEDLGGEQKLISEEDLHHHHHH
# What was measured:
# [1] = molecular target: T1, human IL2Rγ (endogenously expressed on …); assay: cell-based or functional assay
# [2] = molecular target: T1, human IL2Rγ (endogenously expressed on …); assay: cell-based or functional assay; remark: listed apart in the source
# [3] = molecular target: T1, human IL2Rγ (endogenously expressed on …); assay: cell-based or functional assay; remark: listed apart in the source
# [4] = molecular target: T2, D1 domain of human IL-2Rγ extracellular …; assay: SPR, mAb captured on anti-hFc, 25 C
# Summary of the method: (§1)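 First, a mouse anti-human Fc antibody was amine-coupled to the chip; test mAbs were then captured and IL2Rγ reagents bound in HBS-ET, pH 7.4. Dissociation was tracked for 8-10 minutes before 1:1 fitting of the sensorgrams.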
# [5] = molecular target: T2, D1 domain of human IL-2Rγ extracellular …; assay: SPR, mAb captured on anti-hFc, 37 C
# Summary of the method: as §1
# [6] = molecular target: T3, D2 domain of human IL2Rγ extracellular …; assay: SPR, mAb captured on anti-hFc, 25 C
# Method: (§2) Equilibrium dissociation constants (KD values) for IL-2Rγ binding to purified anti-IL2Rγ monoclonal antibodies were determined using a Biacore 4000 instrument equipped with a real-time surface plasmon resonance biosensor. All binding studies were performed in 10 mM HEPES, 150 mM NaCl, 3 mM EDTA, and 0.05% v/v Surfactant Tween-20, pH 7.4 (HBS-ET) running buffer at 25° C. and 37° C. The Biacore sensor surface was first derivatized by amine coupling with a monoclonal mouse anti-human Fc antibody (GE, # BR-1008-39) to capture anti-IL2Rγ monoclonal antibodies.
# [7] = molecular target: T3, D2 domain of human IL2Rγ extracellular …; assay: SPR, mAb captured on anti-hFc, 37 C
# Method: as §2
# [8] = molecular target: T2, D1 domain of human IL-2Rγ extracellular …; assay: SPR, mAb captured on anti-hFc, 25 C; 25 C
# Method: as §2
# (§3) The dissociation of monoclonal antibody bound IL2Rγ reagents were monitored for 8-10 minutes in HBS-ET running buffer. Kinetic association (kₐ) and dissociation (kd) rate constants were determined by fitting the real-time sensorgrams to a 1:1 binding model using Scrubber 2.0c curve fitting software. Binding dissociation equilibrium constants (KD) and dissociative half-lives (t_{1/2}) were calculated from the kinetic rate constants as: […]
# [9] = molecular target: T4, Human IL2Rγ extracellular domain …; assay: SPR Biacore 4000, anti-hFc-captured mAb, 25 C
# Summary of the method: as §1
# [10] = molecular target: T5, Mouse IL2Rγ extracellular domain …; assay: SPR Biacore 4000, anti-hFc-captured mAb, 25 C
# Summary of the method: as §1
# [11] = molecular target: T6, Rat IL2Rγ extracellular domain …; assay: SPR Biacore 4000, anti-hFc-captured mAb, 25 C
# Summary of the method: as §1
# [12] = molecular target: T7, Macaca fascicularis IL2Rγ extracellular …; assay: SPR Biacore 4000, anti-hFc-captured mAb, 37 C
# Summary of the method: as §1
# [13] = molecular target: T4, Human IL2Rγ extracellular domain …; assay: SPR Biacore 4000, anti-hFc-captured mAb, 37 C
# Summary of the method: as §1
# [14] = molecular target: T5, Mouse IL2Rγ extracellular domain …; assay: SPR Biacore 4000, anti-hFc-captured mAb, 37 C
# Summary of the method: as §1
# [15] = molecular target: T6, Rat IL2Rγ extracellular domain …; assay: SPR Biacore 4000, anti-hFc-captured mAb, 37 C
# Summary of the method: as §1
# [16] = molecular target: T4, Human IL2Rγ extracellular domain …; assay: SPR Biacore 4000, anti-hFc-captured mAb, 37 C; computed with kd fixed at 1.00E-05
# Method: as §2, §3
# [17] = molecular target: T4, Human IL2Rγ extracellular domain …; assay: SPR Biacore 4000, anti-hFc-captured mAb, 37 C; no dissociation observed, kd manually fixed at 1.00E-05
binder,measurement,setting,value
"H4H12889P (antibody, human IgG4 S228P, kappa, V domains shown, human IgG4; also called REGN7257) VH: EVQLVESGGGLVQPGGSLRLSCAASGFIFSSYEMHWVRQAPGKGLEWISYISSSGTTIYYADSVKGRFTISRDNAKNSLYLHMNSLRAEDTAVYYCTRARITGTFDVFDIWGQGTMVTVSS VL: DIQMTQSPSSLSASVGDRVTITCRASQSISSYLNWYQQKPGKAPKLLIFAASNLQSGVPSRFSGSRSGTDFTLTISSLQPEDFATYYCQQNYNIPYTFGQGTKLEIKR","IC50; IL-2 (10 nM)-induced STAT phosphorylation, human CD4+ T cells",[1],2.06 nM
same,"IC50; IL-4 (50 pM)-induced STAT phosphorylation, human CD4+ T cells",[1],1.1e-09 M
same,"IC50; IL-7 (1 pM)-induced STAT phosphorylation, human CD4+ T cells",[1],8.92e-10 M
same,"IC50; IL-15 (0.5 nM)-induced STAT phosphorylation, human CD4+ T cells",[1],2.55 nM
same,"IC50; IL-21 (50 pM)-induced STAT phosphorylation, human CD4+ T cells",[1],2.28e-09 M
same,"IC50; IL-9 (2 nM)-induced STAT3 phosphorylation, in vitro differentiated human mast cells",[2],0.441 nM
same,IC50; IL-2 30 pM; NK92/hIL7R/STAT3-luc,[3],2.7e-08 M
same,IC50; IL-4 250 pM; Ramos.2G6.4C10/STAT3-luc,[3],1.9e-09 M
same,IC50; IL-7 50 pM; NK92/hIL7R/STAT3-luc,[3],3e-09 M
same,IC50; IL-9 20 pM; NK92/hIL7R/STAT3-luc,[3],7.1e-09 M
same,IC50; IL-15 60 pM; NK92/hIL7R/STAT3-luc,[3],8.5e-09 M
same,IC50; IL-21 5 pM; NK92/hIL7R/STAT3-luc,[3],> 1e-07 M
same,Max Inhibition (%); IL-2 30 pM; NK92/hIL7R/STAT3-luc,[3],81%
same,Max Inhibition (%); IL-4 250 pM; Ramos.2G6.4C10/STAT3-luc,[3],101%
same,Max Inhibition (%); IL-7 50 pM; NK92/hIL7R/STAT3-luc,[3],100%
same,Max Inhibition (%); IL-9 20 pM; NK92/hIL7R/STAT3-luc,[3],100%
same,Max Inhibition (%); IL-15 60 pM; NK92/hIL7R/STAT3-luc,[3],92%
same,Max Inhibition (%); IL-21 5 pM; NK92/hIL7R/STAT3-luc,[3],35%
same,100 nM Ag Bound,[4],38 RU
same,Kd,[4],5.34 nM
same,koff,[4],0.00107 s⁻¹
same,kon,[4],200000 M⁻¹ s⁻¹
same,t½,[4],11 min
same,100 nM Ag Bound,[5],16 RU
same,Kd,[5],20 nM
same,koff,[5],0.00507 s⁻¹
same,kon,[5],254000 M⁻¹ s⁻¹
same,t½,[5],2.3 min
same,100 nM Ag Bound,[6],0 RU
same,binding result,[6],no binding (tested: 100 nM)
same,100 nM Ag Bound,[7],0 RU
"H4H12926P2 (antibody, human IgG4 S228P, kappa, V domains shown, human IgG4) VH: QVQLQQSGPGLVKPSQTLSLTCAISGDSVSSNIAAWNWIRLSPSRGLEWLGRTFFRSTWFYDYSLSVKGRITINPDTSKNQFSLHLNSVTPEDAAVYYCARTGRRWSLDYWGQGTLVTVSS VL: not shown",100 nM Ag Bound,[6],0 RU
same,binding result,[6],no binding (tested: 100 nM)
same,100 nM Ag Bound,[7],0 RU
same,Kd,[8],195 nM
same,koff,[8],0.0273 s⁻¹
same,kon,[8],140000 M⁻¹ s⁻¹
same,t½,[8],0.4 min
"H4H12922P2 (antibody, human IgG4 S228P, kappa, V domains shown, fully human anti-IL2Rgamma mAb, human IgG4 Fc; also called REGN7256) VH: QVQLVESGGGVVKPGGSLRLSCAASGFTFSNSGIHWVRQAPGKGLEWVALISYAGSNKYYADSVKGRFTISRDNSKNTLSLQMNSLRAEDTAVYYCAKEVWTGTYDSFDMWGRGTMVTVSS VL: not shown",50 nM Ag Bound,[9],82 RU
same,Kd,[9],0.0564 nM
same,koff,[9],1.75e-05 s⁻¹
same,kon,[9],310000 M⁻¹ s⁻¹
same,t1/2,[9],661 min
same,100 nM Ag Bound,[10],2 RU
same,binding result,[10],no binding (tested: 100 nM)
same,100 nM Ag Bound,[11],3 RU
same,binding result,[11],no binding (tested: 100 nM)
same,100 nM Ag Bound,[12],44 RU
same,Kd,[12],4.18 nM
same,koff,[12],0.00129 s⁻¹
same,kon,[12],308000 M⁻¹ s⁻¹
same,t1/2,[12],9 min
same,50 nM Ag Bound,[13],47 RU
same,kon,[13],223000 M⁻¹ s⁻¹
same,100 nM Ag Bound,[14],2 RU
same,100 nM Ag Bound,[15],5 RU
same,Kd,[16],≤ 0.0448 nM
same,t1/2,[16],≥ 1160 min
same,koff,[17],≤ 1e-05 s⁻¹

# Reference: patent publication US20200247894A1 (Regeneron, published 2020)
